The chains are these.
B1: Bone marrow stromal antigen 2 (Homo sapiens), Q10589 (parent)
chain: MASTSYDYCRVPMEDGDKRCKLLLGIGILVLLIIVILGVPLIIFTIKANSEACRDGLRAVMECRNVTHLLQQELTEAQKGFQDVEAQAATCNHTVMALMASLDAEKAQGQKKVEELEGEITTLNHKLQDASAEVERLRRENQVLSVRIADKKYYPSSQDSSSAAAPQLLIVLLGLSALLQ
partner: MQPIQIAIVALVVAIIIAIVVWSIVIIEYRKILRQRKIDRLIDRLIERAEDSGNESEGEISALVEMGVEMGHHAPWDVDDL
B2: Protein Vpu (Human immunodeficiency virus type 1 group M subtype B (isolate BH10) (HIV-1)), P69699 (parent)
chain: B1 partner

The variants in the first assay derive from B1. As to conditions: with vpu_hv1b1 vpu, P69699.
On to L24I;T45I, for which the “effect of a mutation on the interaction” value was “disrupting interaction strength”.

L41A: the “effect of a mutation on the interaction” value was “disrupting interaction”.

In the case of L37A, the “effect of a mutation on the interaction” value was “disrupting interaction”.

For the variant I34A, the “effect of a mutation on the interaction” value is “disrupting interaction”.

For the variant I26A, the “effect of a mutation on the interaction” value is listed as “decreasing interaction”.

In another assay the parent is B2. As to conditions: with bst2_human BST2, Q10589.
Regarding A10F;A14F;A18F, the “effect of a mutation on the interaction” value is reported as “decreasing interaction”.

As for W22A, the “effect of a mutation on the interaction” value is “decreasing interaction”.

Turning to A14F, the “effect of a mutation on the interaction” value is listed as “decreasing interaction”.

The variants in another assay derive from B2. As to conditions: with bst2_human BST2, Q10589. This is another data set of the same source.
A10F;A14F;A18F: the “effect of a mutation on the interaction” value is given as “disrupting interaction”.
